One block for each binder: values may come before it.
What was measured:
β-Arrestin1 [1] = molecular target: T1, β-Arrestin1 (human (endogenous in Caco-2 and HCT116), UniProt P49407 1-418); assay: proximity ligation; Duolink II red kit on fixed, permeabilised cells; PTEN-/- HCT116 cells transfected 24 hr with GFP-tagged EV or PTEN constructs, HCT116 cells as positive control; signal as AI units, n = 35 cells per condition in triplicate; conditions: partners not purified
T1 construct: β-Arrestin1, endogenous in human colorectal cell lines Caco-2 and HCT116 and their PTEN-deficient subclones; Precipitated with anti-β-Arrestin1 (bait of the co-IPs); detected with mouse anti-β-Arrestin1 in the PLA; also called Beta-Arrestin1; source: endogenous, Caco-2, Caco-2 ShPTEN, HCT116 and PTEN-/- HCT116 cells (lysate, membrane fraction, or fixed cells)
T1 sequence (P49407 whole entry): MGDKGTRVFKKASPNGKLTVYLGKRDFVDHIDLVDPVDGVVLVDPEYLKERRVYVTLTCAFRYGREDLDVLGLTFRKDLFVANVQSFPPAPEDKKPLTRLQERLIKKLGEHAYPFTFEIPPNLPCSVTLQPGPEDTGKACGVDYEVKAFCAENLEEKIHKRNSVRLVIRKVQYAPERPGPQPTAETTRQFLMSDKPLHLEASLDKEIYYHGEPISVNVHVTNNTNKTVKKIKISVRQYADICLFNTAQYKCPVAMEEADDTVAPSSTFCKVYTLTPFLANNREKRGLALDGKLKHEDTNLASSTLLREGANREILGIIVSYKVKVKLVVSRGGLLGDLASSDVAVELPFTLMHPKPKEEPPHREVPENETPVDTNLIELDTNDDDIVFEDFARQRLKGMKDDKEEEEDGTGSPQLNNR

β-Arrestin1 [2] = molecular target: T1, β-Arrestin1; assay: cell-based or functional assay

B1: GFP-labeled PTEN C124S-T383A (natural protein, UniProt P60484 1-403, looked up)
chain: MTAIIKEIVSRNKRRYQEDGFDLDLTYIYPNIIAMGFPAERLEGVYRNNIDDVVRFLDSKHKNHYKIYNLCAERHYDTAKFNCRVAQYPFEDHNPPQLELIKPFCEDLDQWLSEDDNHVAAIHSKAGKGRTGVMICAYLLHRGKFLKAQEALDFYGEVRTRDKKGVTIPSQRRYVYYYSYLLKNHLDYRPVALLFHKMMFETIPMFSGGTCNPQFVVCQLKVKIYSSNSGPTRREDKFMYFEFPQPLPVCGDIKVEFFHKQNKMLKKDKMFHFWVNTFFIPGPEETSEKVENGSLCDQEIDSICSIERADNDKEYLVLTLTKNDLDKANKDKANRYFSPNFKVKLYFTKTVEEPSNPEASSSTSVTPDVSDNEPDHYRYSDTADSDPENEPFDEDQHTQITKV
notes: also called CS-T383A; source: PTEN-/- HCT116 cells, transfected, in fixed cells
PLA interaction AI (β-Arrestin1 [1]): 69.8 AI units

PLA interaction AI (β-Arrestin1 [1]): 101 AI units
B2: PTEN (phosphatase and tensin homolog) (natural protein)
chain: not shown
notes: source: endogenous, HCT116 cells (fixed cells)

Cdc42-GTP (ADU, fold) in HCT116 cells after pep24 vs control peptide (β-Arrestin1 [2]): 0.44 fold change
Cdc42-GTP (fold change, ADU) in Caco-2 cells after 10 μM pep24 vs control peptide (β-Arrestin1 [2]): 0.48 fold change
PLA interaction AI (β-Arrestin1 [1]): 123 AI units
B3: ARHGAP21 (natural protein, human (endogenous in Caco-2 and HCT116), UniProt Q5T5U3 1-1958, looked up)
chain: MMATRRTGLSEGDGDKLKACEVSKNKDGKEQSETVSLSEDETFSWPGPKTVTLKRTSQGFGFTLRHFIVYPPESAIQFSYKDEENGNRGGKQRNRLEPMDTIFVKQVKEGGPAFEAGLCTGDRIIKVNGESVIGKTYSQVIALIQNSDTTLELSVMPKDEDILQVLQFTKDVTALAYSQDAYLKGNEAYSGNARNIPEPPPICYPWLPSAPSAMAQPVEISPPDSSLSKQQTSTPVLTQPGRAYRMEIQVPPSPTDVAKSNTAVCVCNESVRTVIVPSEKVVDLLSNRNNHTGPSHRTEEVRYGVSEQTSLKTVSRTTSPPLSIPTTHLIHQPAGSRSLEPSGILLKSGNYSGHSDGISSSRSQAVEAPSVSVNHYSPNSHQHIDWKNYKTYKEYIDNRRLHIGCRTIQERLDSLRAASQSTTDYNQVVPNRTTLQGRRRSTSHDRVPQSVQIRQRSVSQERLEDSVLMKYCPRSASQGALTSPSVSFSNHRTRSWDYIEGQDETLENVNSGTPIPDSNGEKKQTYKWSGFTEQDDRRGICERPRQQEIHKSFRGSNFTVAPSVVNSDNRRMSGRGVGSVSQFKKIPPDLKTLQSNRNFQTTCGMSLPRGISQDRSPLVKVRSNSLKAPSTHVTKPSFSQKSFVSIKDQRPVNHLHQNSLLNQQTWVRTDSAPDQQVETGKSPSLSGASAKPAPQSSENAGTSDLELPVSQRNQDLSLQEAETEQSDTLDNKEAVILREKPPSGRQTPQPLRHQSYILAVNDQETGSDTTCWLPNDARREVHIKRMEERKASSTSPPGDSLASIPFIDEPTSPSIDHDIAHIPASAVISASTSQVPSIATVPPCLTTSAPLIRRQLSHDHESVGPPSLDAQPNSKTERSKSYDEGLDDYREDAKLSFKHVSSLKGIKIADSQKSSEDSGSRKDSSSEVFSDAAKEGWLHFRPLVTDKGKRVGGSIRPWKQMYVVLRGHSLYLYKDKREQTTPSEEEQPISVNACLIDISYSETKRKNVFRLTTSDCECLFQAEDRDDMLAWIKTIQESSNLNEEDTGVTNRDLISRRIKEYNNLMSKAEQLPKTPRQSLSIRQTLLGAKSEPKTQSPHSPKEESERKLLSKDDTSPPKDKGTWRKGIPSIMRKTFEKKPTATGTFGVRLDDCPPAHTNRYIPLIVDICCKLVEERGLEYTGIYRVPGNNAAISSMQEELNKGMADIDIQDDKWRDLNVISSLLKSFFRKLPEPLFTNDKYADFIEANRKEDPLDRLKTLKRLIHDLPEHHYETLKFLSAHLKTVAENSEKNKMEPRNLAIVFGPTLVRTSEDNMTHMVTHMPDQYKIVETLIQHHDWFFTEEGAEEPLTTVQEESTVDSQPVPNIDHLLTNIGRTGVSPGDVSDSATSDSTKSKGSWGSGKDQYSRELLVSSIFAAASRKRKKPKEKAQPSSSEDELDNVFFKKENVEQCHNDTKEESKKESETLGRKQKIIIAKENSTRKDPSTTKDEKISLGKESTPSEEPSPPHNSKHNKSPTLSCRFAILKESPRSLLAQKSSHLEETGSDSGTLLSTSSQASLARFSMKKSTSPETKHSEFLANVSTITSDYSTTSSATYLTSLDSSRLSPEVQSVAESKGDEADDERSELISEGRPVETDSESEFPVFPTALTSERLFRGKLQEVTKSSRRNSEGSELSCTEGSLTSSLDSRRQLFSSHKLIECDTLSRKKSARFKSDSGSLGDAKNEKEAPSLTKVFDVMKKGKSTGSLLTPTRGESEKQEPTWKTKIADRLKLRPRAPADDMFGVGNHKVNAETAKRKSIRRRHTLGGHRDATEISVLNFWKVHEQSGERESELSAVNRLKPKCSAQDLSISDWLARERLRTSTSDLSRGEIGDPQTENPSTREIATTDTPLSLHCNTGSSSSTLASTNRPLLSIPPQSPDQINGESFQNVSKNASSAANAQPHKLSETPGSKAEFHPCL
notes: also called ARHGA21; source: endogenous, Caco-2, Caco-2 ShPTEN, HCT116 and PTEN-/- HCT116 cells (lysate, membrane fraction, or fixed cells)

Reference: paper PMC5576923 (eLife, 2017)
